Our source for the Kd values is publication PMC13281853.

pKd: −log10 of the molar value.

In this experiment the target is ancGR2-LBD (ligand-binding domain of the ancestral glucocorticoid receptor 2), Dex-bound. Kind of experiment: SPR. Background: In SPR one partner is held on a chip, and binding of the other changes the refractive index at the surface.

For the substance “ancGR2-LBD (ligand-binding domain of the ancestral glucocorticoid receptor 2), Dex-bound (domain or fragment)”, the pKd was 4.76.

By pKd is commonly meant the negative decadic logarithm of the Kd, by convention in mol/L. A higher pKd goes with a small Kd.
